Experimental data published in article PMC6515407, “Laccases with Variable Properties from Different Strains of Steccherinum ochraceum: Does Glycosylation Matter?” (International Journal of Molecular Sciences, 2019).

Legend:
Assay in all cases: spectrophotometric oxidation kinetics
Assay type in all cases: biochemical, Steccherinum ochraceum
Details in all cases: 0.1 M McIlvaine buffer pH 4.5, 25 °C, native glycosylated enzyme
[1] = substrate: COc1cc(C=NN=Cc2cc(OC)c(O)c(OC)c2)cc(OC)c1O
Excerpt: (§1) spectrophotometric oxidation kinetics on So2134

[2] = substrate: CCn1c(=NN=c2sc3cc(S(=O)(=O)O)ccc3n2CC)sc2cc(S(=O)(=O)O)ccc21
Excerpt: as §1

[3] = substrate: COc1cccc(OC)c1O
Excerpt: as §1

B1: So2134 (Steccherinum ochraceum) (protein)
chain: VQIGPVTDLHITNANIAPDGFTRPAVLAGGTFPGPTISGNTGDNFQITVFNELTETSMLTDTSIHWHGLFQKGTNWADGPAFVTQCPIITGNSFDYNFNVPGQAGTYWYHSHLSTQYCDGLRGPFVVYDPNDPNASLYDVDDDTTIITLADWYHTLAQQEPIGAAITADATLINGLGRSFTNTTASPLSVITVQSGKRYRMRLVSISCDPNYQFSIDGHDMTIIEVDGVNSQQLTVDQIQIFAAQRYSFVLNANQPVGNYWIRAQPNSGGQGFDGGINSAILRYEGATVADPTTSPPTTFTSPLVETNLHPLADLGVPGQPFRGGADDPMVLNLGFANGRFTIDGVSFVPPTVPVLLQILSGAQNAQDLLPAGSVISLPPNSVIEVALPAGAAGGPHPFHLHGHNFAVVQSANNATPNYVNPIWRDTVSIGGTGDNVTIRFTTNNPGPWFLHCHIDWHLEAGFAIVFAEDIPDTASANPVPQAWSDLCPAYDQAHNISTAT
Km [1]: 3.7 ± 0.5 µM
kcat [1]: 91 ± 7 s⁻¹
kcat/Km [1]: 2.46e+07 ± 3.93e+06 M⁻¹ s⁻¹
Km [2]: 100 ± 6 µM
kcat [2]: 254 ± 23 s⁻¹
kcat/Km [2]: 2.54e+06 ± 276000 M⁻¹ s⁻¹
Km [3]: 21 ± 2 µM
kcat [3]: 166 ± 14 s⁻¹
kcat/Km [3]: 7.9e+06 ± 1.03e+06 M⁻¹ s⁻¹
